Measured values as given in patent US20110224139A1.

Columns and labels:
[1] = target: T1, Ac-…-CONH2 (RAD16-II) self-assembling peptide, as nanofiber hydrogel; assay: in vitro binding experiment: release of 100 nM Alexa-488 labeled protein from a nanofiber hydrogel in culture inserts
T1 sequence (peptide, N-terminal acetyl (Ac); C-terminal amide (CONH2)): RARADADARARADADA

[2] = target: T2, SDF-1(S4V)-N-terminal peptide (first 8 amino acids of SDF-1(S4V), FRET peptide)
T2 chain: KPVVLSYR

[3] = target: T3, SDF-1-N-terminal peptide (first 8 amino acids of SDF-1, FRET peptide)
T3 chain: KPVSLSYR

Q: Which percent released from the nanofibers over 24 hours [1] does the source give for “Alexa-488 labeled SSDF-1 (from UniProt P48061 22-89) (ligand)” here?
A: 73%

B1: Human recombinant MMP-2 (R&D Systems), activated with 4-aminophenylmercuric acetate (protein)
chain: YNFFPRKPKWDKNQITYRIIGYTPDLDPETVDDAFARAFQVWSDVTPLRFSRIHDGEADIMINFGRWEHGDGYPFDGKDGLLAHAFAPGTGVGGDSHFDDDELWTLGEGQVVRVKYGNADGEYCKFPFLFNGKEYNSCTDTGRSDGFLWCSTTYNFEKDGKYGFCPHEALFTMGGNAEGQPCKFPFRFQGTSYDSCTTEGRTDGYRWCGTTEDYDRDKKYGFCPETAMSTVGGNSEGAPCVFPFTFLGNKYESCTSAGRSDGKMWCATTANYDDDRKWGFCPDQGYSLFLVAAHEFGHAMGLEHSQDPGALMAPIYTYTKNFRLSQDDIKGIQELYGASPDIDLGTGPTPTLGPVTPEICKQDIVFDGIAQIRGEIFFFKDRFIWRTVTPRDKPMGPLLVATFWPELPEKIDAVYEAPQEEKAVFFAGNEYWIYSASTLERGYPKPLTSLGLPPDVQRVDAAFNWSKNKKTYIFAGDKFWRYNEVKKKMDPGFPKLIADAWNAIPDNLDAVVDLQGGGHSYFFKGAYYLKLENQSLKSVKFGSIKSDWLGC
Q: Which results are given for B1?
A: amount of peptide cleaved after 4 hours (FRET peptide cleavage) [2]: no significant amount (1±3 pmol); initial cleavage rate [2]: 0.1±0.1×10^-10M s^-1; amount of peptide cleaved after 4 hours (FRET peptide cleavage) [3]: 205 ± 18 pmol; initial cleavage rate [3]: 2.0±0.1×10^-10M s^-1; rate of cleavage relative to SDF-1 (times lower), SDS-PAGE (Sumo-SDF-1(S4V)-RAD): the rate of SDF-1(S4V) cleavage is at least 48 times lower than SDF-1; cleavage seen by SDS-PAGE (Sumo-SDF-1-RAD): more Sumo-SDF-1-RAD was cleaved within 1 hour than Sumo-SDF-1(S4V)-RAD in 48 hours
